The target of experiment [1] is D-psicose 3-epimerase from Ruminococcus sp. 5_1_39BFAA (RDPE) (Ruminococcus sp. 5_1_39BFAA). The experiment in a line: native gel or EMSA; soluble protein fractions combined with SDS at 0, 0.5%, 1% and 2% and run on a 10% acrylamide native gel. On the technique in general: Mobility shift assays separate free from complexed probe on a gel.
Experiment [2] has the same target. The experiment can be described thus: native gel or EMSA; blue native PAGE (BN-PAGE) of the soluble cytoplasmic fraction and the culture supernatant of B. subtilis after 24 h of cultivation; non-reducing sample buffer, Coomassie blue; mass estimated within ±15%.
In experiment [3] the target is RDPE truncated by a single amino acid from the N-terminus (ΔN1) (Ruminococcus sp. 5_1_39BFAA). Described as above.
The target of experiment [4] is RDPE variant D102A (Ruminococcus sp. 5_1_39BFAA). The experiment is described as above.
Experiment [5] concerns the target RDPE derivative with a C-terminal 6-His tag (RDPE-H) (Ruminococcus sp. 5_1_39BFAA). The experiment in a line: cross-linking; in vivo cross-linking of B. subtilis cells with 0.5 mM DSS in PBS pH 8.3, 20 min at 37 °C; cells recovered 1 h in fresh medium; 10% SDS-PAGE with β-mercaptoethanol and anti-His immunoblot of cell and supernatant fractions. A general note: In western blotting, separated proteins are transferred to a membrane and probed.

Experiment [6] has as its target RDPE variant G181A (Ruminococcus sp. 5_1_39BFAA). The experiment can be described thus: native gel or EMSA; blue native PAGE (BN-PAGE) of the soluble cytoplasmic fraction and the culture supernatant of B. subtilis after 24 h of cultivation; non-reducing sample buffer, Coomassie blue; mass estimated within ±15%.
Experiment [7] addresses RDPE variant V175A (Ruminococcus sp. 5_1_39BFAA). Described as above.
Experiment [8] addresses RDPE variant 100A (Leu100 to alanine) (Ruminococcus sp. 5_1_39BFAA). The experiment is described as above.
The target in experiment [9] is RDPE variant L184A (Ruminococcus sp. 5_1_39BFAA). The experiment is described as above.
For experiment [10], the target named is RDPE variant V182A (Ruminococcus sp. 5_1_39BFAA). Described as above.
For experiment [11], the target named is RDPE variant V106A (Ruminococcus sp. 5_1_39BFAA). The description is as above.
Experiment [12] has as its target RDPE variant V180A (Ruminococcus sp. 5_1_39BFAA). The experiment is described as above.
Experiment [13] concerns the target RDPE variant I103A (Ruminococcus sp. 5_1_39BFAA). The description is as above.
The target of experiment [14] is full-length RDPE fused to mCherry (RDPE-mCh) (Ruminococcus sp. 5_1_39BFAA). The experiment is described as above.
Experiment [15] addresses RDPE variant G107A (Ruminococcus sp. 5_1_39BFAA). The description is as above.

Values joined by “and” are separate entries in the source; they are usually repeats but may differ in a detail not shown here. Equal values may be shown once.

As a reminder, the stoichiometry N is a count of units in the complex or per binding partner.

Consider “D-psicose 3-epimerase from Ruminococcus sp. 5_1_39BFAA (RDPE) (enzyme)”, for which the stoichiometry N in experiment [1] was 3 and 2; in experiment [2] it was 4.
As to “RDPE truncated by a single amino acid from the N-terminus (ΔN1) (enzyme)”, the stoichiometry N in experiment [3] is 4.
As to RDPE variant D102A (enzyme), in [4], the stoichiometry N was 4.
In turn, “RDPE derivative with a C-terminal 6-His tag (RDPE-H) (enzyme)” returned a stoichiometry N in experiment [5] of 4.
Turning to RDPE variant G181A (enzyme), the stoichiometry N in experiment [6] is 4.
As to RDPE variant V175A (enzyme), the stoichiometry N in [7] was 4.
As for “RDPE variant 100A (Leu100 to alanine) (enzyme)”, the stoichiometry N in experiment [8] is 4.
For RDPE variant L184A (enzyme), in [9], the stoichiometry N is 4.
With RDPE variant V182A (enzyme), the stoichiometry N in experiment [10] is 4.
For RDPE variant V106A (enzyme), in experiment [11], the stoichiometry N was 4.
On to RDPE variant V180A (enzyme), for which the stoichiometry N in experiment [12] is 4.
Regarding RDPE variant I103A (enzyme), the stoichiometry N in experiment [13] is 4.
With “full-length RDPE fused to mCherry (RDPE-mCh) (enzyme)”, the stoichiometry N in [14] was 4.
With RDPE variant G107A (enzyme), in [15], the stoichiometry N was 4.

(Values after PMC5343618.)
